The record followed here is publication PMC8145141, “Characterization of a Dye-Decolorizing Peroxidase from Irpex lacteus Expressed in Escherichia coli: An Enzyme with Wide Substrate Specificity Able to Transform Lignosulfonates” (Journal of Fungi, 2021).

Substrate in data set [1]: CCn1c(=NN=c2sc3cc(S(=O)(=O)O)ccc3n2CC)sc2cc(S(=O)(=O)O)ccc21
Kind of data set: purified protein. The note with it: 0.4 mM H2O2, pH 3.0, 25 °C. In kind it is biochemical, Irpex lacteus.

Substrate in data set [2]: Nc1c(N=Nc2ccc(S(=O)(=O)CCOS(=O)(=O)O)cc2)c(S(=O)(=O)O)cc2cc(S(=O)(=O)O)c(N=Nc3ccc(S(=O)(=O)CCOS(=O)(=O)O)cc3)c(O)c12
Kind of data set: purified protein. In kind it is biochemical, Irpex lacteus. The note with it: 0.4 mM H2O2, pH 3.0, 25 °C.

B1: IrlacDyP (recombinant Irpex lacteus DyP) (Irpex lacteus) (protein)
chain: SAGNDSLPFENIQGDILVGMKKDKEKFVFFHINNATTFKSFLKTYAPANITSVQTIIGPASGQPQAFVNLAFSHTGFGALGVADDLQDTAFTAGQFADAPSFGDDTSTWEEAFKGTNVDGVFLIGSDDVTTTNQYRDDLKAKLGDAWTVLLDLDSAARPGAEKGHEHFGYLDGISNPTIPGFGTPFPGQAVVDSGVIFAGRTNDPVTNRPSWALDGSFLVFRKLKQLVPEFHKWTLDNALQNQAGNLTVEEGALLLGSRMFGRWNSGAPIDLTPDVDDPTLGSDPQRNNDFNYIHPGEDLTTDETRCPFTAHVRKANPRDLEAQGLIPDLFHAIRAGTPYGPEVTDAESNSNTTSIDRGLAFVEYQSVISNGFRFQQLNWANNANFPFNKSEPLGLDPVIGQGTRQTFGLDPRNASDSLTIPQIIISNGGEYFFSPSITALVEHFGA
notes: mature form, signal peptide removed, 447 residues; about 50 kDa, non-glycosylated
The Km is the concentration of substrate that gives half-maximal velocity. One may read the kcat as the maximal rate divided by the concentration of active sites. As a reminder, the kcat/Km is the second-order rate constant that governs catalysis at low substrate concentration. Turning to B1, in the data set “purified protein [1]”, the Km came to 1.5 ± 0.2 µM, the kcat amounted to 49.8 ± 1.3 s⁻¹ and the catalytic efficiency (kcat/Km) amounted to 3.3e+07 ± 4e+06 M⁻¹ s⁻¹. Moreover, in “purified protein [2]”, the Michaelis-Menten constant (Km) amounted to 11.9 ± 2.1 µM and the kcat/Km was found to be 6.5e+06 ± 1e+06 M⁻¹ s⁻¹.
